Biological target: T1, 人PDL1蛋白 (human, UniProt Q9NZQ7 19-239, limits assumed)
T1 construct: Bought recombinant protein; also called human PDL1; B7-H1
Experiment: non-competitive ELISA, four coating concentrations of PDL1 (1, 0.5, 0.25, 0.125 ug/mL), KA=(n-1)/(nAb'-Ab), mean of 6 values

T1 sequence (Q9NZQ7 19-239 limits assumed): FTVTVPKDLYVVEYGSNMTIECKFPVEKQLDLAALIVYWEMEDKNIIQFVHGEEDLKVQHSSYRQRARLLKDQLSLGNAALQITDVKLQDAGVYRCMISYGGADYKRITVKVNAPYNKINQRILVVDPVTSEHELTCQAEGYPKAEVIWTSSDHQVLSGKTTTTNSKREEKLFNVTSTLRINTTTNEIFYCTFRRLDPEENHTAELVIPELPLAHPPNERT

B1: 抗人PDL1纳米抗体 Nb2 (VHH)
VHH: QVQLQESGGGSVQAGGSLRLSCIASGVDYNSRTDRMAWFRQVPGKEREGVAAIYTYNNRTYYADSVKGRFTISQDIGKNTVYLQMNSLEPEDTATYYCARDWRFSSGMLDKNMYKYWGQGTQVTVSS
notes: Expressed from pMECS in E. coli TG1, Ni-purified; also called 抗PDL1(Nb2)纳米抗体; not shown: C-terminal HA and His tags from the pMECS vector
Ka: 933000 M⁻¹

Source: patent publication CN116023492A (XINJIANG YOUMAI BIOTECHNOLOGY CO LTD, dated 2023)
